{"source": "paper PMC3617236", "key": {"[1]": {"biological_target": "recombinant His-tagged Wolbachia surface protein wBm0152 (Wolbachia endosymbiont of B. malayi (wBm))", "experiment": "ELISA"}, "[2]": {"biological_target": "recombinant His-tagged B. malayi fructose-bisphosphate aldolase (B. malayi)", "experiment": "far-Western, overlay or dot blot; His-Bm-aldolase (3 µg per lane) run on SDS-PAGE and blotted on nitrocellulose; strips incubated with 1, 2, 5 or 10 µg/ml His-wBm0432 in overlay buffer, 3 h, room temperature; signals quantified with GeneSnap"}}, "data": [{"substance": "purified bovine actin (from UniProt P68138 1-377) (natural protein)", "values": [{"measurement": "Kd", "setting": "[1]", "value": 570, "unit": "nM"}]}, {"substance": "recombinant His-tagged Wolbachia surface protein wBm0432 (natural protein)", "values": [{"measurement": "Kd", "setting": "[2]", "value": 510, "unit": "nM"}]}]}
